# From the DeepSol protein solubility set
# Assay: soluble on expression in E. coli; label from the status in PepcDB or PDB records
row,Sequence,soluble on expression in E. coli
1,MAETSNASAEPELIYFEVTSNEERFVHMVFQMASNTTNQFLIFVKDDETCFRAQRALYSSGEMTQCFLKNMNKDAFKKRKQELKNGTAKVWIADRSVIGKLVDCFSKELTVFLYDGISNDFPKQAVGKCHSVISLKQSRHTAVNTSDGLFEQVFHICQLYNATFTSPIKDWMASSKNGDLPENADTMKLVIARPSELLNSASTLRSFNDIVAKDPRILNLMEAFKVIENKARIDKDDNSRGMLYLCVKMRSELDGQYVTKNKADQFYRVEFNTLKNMKNKSEFLRKMCPS,not soluble
2,MAEVKEKRHEELGLSDEQVLEMFRTMLLARKIDERMWLLNRAGKIPFVISCQGQEAAQVGAAFALDREKDYALPYYRDMGVVLAFGMTAKELMLSGFAKAGDPNSGGRQMPGHFGQKKNRIVTGSSPVTTQVPHAVGIALAGKMEKKDLVTFVTFGEGSSNQGDFHEGANFAGVHKLPVIFMCENNKYAISIPVEKQLACKNVSDRAIGYGMPGYTVDGNDPLAVYKAVKEAADRGRRGEGPTLIETVSYRLTAHSSDDDDRVYRDKEEVEEAKKNDSIVTFAAYLKEVGVLTEESEKQMLDEIMHIVNEATEYAENAPYAAPEDALKHVYAE,not soluble
3,MAEVTGVRALTGAALDAALEDVARLRIAVFRAWPYLYDGDLDYERDYLQAYRNSDRAIVVGAFDGDRLIGASTGMPLADHADDFAAAFADSGLALDQVFYCAESVLLPDYRGHGVGHRFFDLREGHARALGFAKC,not soluble
4,MAFDGLFTRAITHEIANSLYTGRISKIYQPSKYEILLHIRANGKNQKLILSAHPTYARLHLTNQNYDSPALPPMFCMLLRKHLEGGFIEKIEQIDLERIIQITVRSRNEIGDESLKTLVIEIMGRHSNIILVDTKTNNILDSLKHVSLAVNRHRTVYAGAEYIAPPVQHKINPLQIETNDEFIRPLDFLSGNMDKQLVGTFTGISPLFAKEVVKKAGMVNEKALADAFFSIQKPLLTHTYSPTMTTSNGKEFFYLFPLAHLAGENKTFSSVSELLDRFFFGKAERDRVKQQAHDLERFMQNEKNKNEKKLIKLEKTLQDAGKADKYQLFGELLTANMYALKKGDKDIEVVNYYDENGGTVKIALDPLKTPSENAQRYFQKYQKAKNSIVVVEEQIEKTKEEILYFDSLLQQMEAASSKDIEEIREELAEEGYMRNRKTKNAKKKPTKPVLDKYVASDGTEIFVGKNNKQNDYLTTKFARRDEIWLHTKDIPGSHVVIRSLEPAEETLLEAAKIAAYYSKAKESSSVPVDFTKIRHVKKPSGAKLGFVTYDNQQTVYVTPDADTVMKLKA,not soluble
5,MAFELPALPYAKDALEPHISAETLDFHHGKHHNTYVVKLNGLIPGTEFENKSLEEIIKTSTGGIFNNAAQVWNHTFYWHCLSPNGGGEPTGAVAEAINAAFGSFADFKAKFTDSAINNFGSSWTWLVKKADGTLAITNTSNAATPLTEEGVTPLLTVDLWEHAYYIDYRNVRPDYMNGFWALVNWDFVAQNLAK,not soluble
6,MAFLARKTSSLLPATTSSTVKHMIYDEPHFAMQNSLAKLIKEKINPNVAQWEKSGRYPAHFVFKMLGQLGVFAVNKPVDYGGTGRDFAMSIAIAEQIGAVDCGSIPMSVMVQSDMSTPALAQFGSDSLRNRFLRPSINGDLVSSIAVSEPHAGSDVSAIRTHARRYGSDLIINGSKMWITNGDQADWACVLVNTSNAKNLHKNKSLVCIPLDSIGVHRSTPLDKLGMRSSDTVQLFFEDVRVPSSYIIGEEGRGFAYQMNQFNDERLVTVAVGLLPLQKCINETIEYARERLIFGKTLLDQQYVQFRLAELEAELEATRSLLYRTVLARCQGEDVSMLTAMAKLKIGRLARKVTDQCLQIWGGAGYLNDNGISRAFRDFRIFSIGAGCDEVMMQIIHKTQSKRQQKRI,not soluble
7,MAFRLAVDCLGFENHPREAIDAVLEYWSYHQELEFILVGDEKTFDGLDYLPKNITKQLASSCIDMTDTPLTARRKVNNSMQKAINLVRDGAADVVISAGSSAVYASLTYDGFGKIHKDVKSAFMSYVPTANNDWFYFLDVGANKNFTGKELYFLGLMADIFVKKTTNKISPRIALLNIGTEIHKGFDYHQEGYQLLNEDKHLNFTGFIEPRFLLDGVCDILVADGYSGNLVLKSMEGTFKTIARLLKQGYKRNPLAGLFSLGILKRIAKRFDYKNNAGAVVIGLNKLALKTHGSADKQQFLSTIRLAHTSLKSDLINAIKSSLDNYEK,soluble
8,MAGAITLACTIRFEANAEHVYLSSGTKQTVYHYPFPMSTIHITLNGERKEVPAGSTVSELLVIADADRQPVAVVVNEHIVRPDQRDSYILQERDQVEILVFAGGGLEHHHHHH,soluble
9,MAGDPMANITLSTQHYRIHRSDVEPVKEKTTDKDVFAKSITAVRNSFISLSTSLSDRFSLHLQTDIPTTHFHRGSASEGRAVLTSKTVKDFMLQKLNSLDIKGNASKDPAYARQTCEAMLSAVYSNNKDHCCKLLISKGVSITPFLKEIGEAAQNAGLPGEIKNGVFTPGGAGANPFVVPLIAAASIKYPHMFINHNQQVSFKAYAEKIVMKEVTPLFNKGTMPTPQQFQLTIENIANKYLQNASLEHHHHHH,not soluble
10,MAGDPMERIESRRARTVRQMLNIRKITYLEKTRKGIEMNSKTIGIDIGGANTKLASSDGTIVELHYLPLWKNTMLPEVLKEISQRLKPENVAVVMTGELADCFEDKEQGIRFIKENVDSAFGSGKVSYINSQGRFRKENDPLRDLAAANWAASARLIGEEIGDCIFVDVGSTTSDIIPVISGEHRAGHTDFERLLRSELVYAGTLRTNLAALLEKVKLEKGICRTSSELFATTADAYLILGEINEDKYTCETADGVGRSKIEAMRRIARLVCADLSEVGETEVYEIAEQVKEKQVSALTEAISEVAERNRLEKIAAAGLGEFLISEAAERLGFECISVAGRWGEEISKVFPAYAAARLLDKYSELEHHHHHH,not soluble
11,MAGDPMKKRFSNKVLIIGYGSVSQCTLPLLLDKLDIPLENITLIDFEDKSKALKKYTNQGLTFVREKITPENLDQVLSQNMENEGMIIDLSWNIDANEIVKWCHDHDVLYVNTSVEVWDPAEKFLTQSLLEKSLYLRQMRLQELSRDWKDAPTAVVDHGANPGLITHFVKQGLLDIAARTCEDKKVSPEDEQEIALLAKNRDFARLARKLGIRVIHCSERDTQIASRPKEVNEFVGTWSIEGLREEGTAPVEIAWGTHESKLPPLAHIPPYGPKNVILLPQMGVNAWVRSWIPDEEIVGMAIRHGESYGLSKLLTVWEGEKAVYRPTVHYAYMPSHDTLSSLCELRGRNYELQPRLRIMTNEIVSGEDIMGALLMGHSYNSWWTGSALSIEEARSLAPGQNATTLQVAAGIVAAILWMLENPREGVKTPEDLPHDFVLDIARPYLGKFISTPSDWTPLKNRKIFFKESPAVKHDPDPWQFENFIFVGLEHHHHHH,soluble
12,MAGDPMNSRMKIKKAYEYMKSFHQHDTTGHDIAHVERVYNNACYIAKRENITDTLVIELSSLLHDTVDSKLTDEILAYDQLKQFLSTLDLSSEISQQVLYIIKHMSYRAGKNNHVKLSIDGEIVRDADRLDAIGAIGIARTFQFSGHFGEPMWTETKLSNEELHTSLVEELDNSAIKHFYEKLFKLKDLMHTPTAKKLAEERHQFMIQYLKQFMSEWNFNKELEHHHHHH,soluble
13,MAGDPMSRRVIRTYKLAVPGHLSQTCEELNRTAARIYNKTMSLVRKIHQKKGFWLSWPTADKYILRWAENIKIHVHSKQAFVQLYFQALKGYFKATKKNPDAKPPHKKKRYLPFIWKESAVKLLPDGTLRLSLGKERESFVVQTPLKPPLRIKQTRLVFEDGYYLHLAIEVEIEEKNAGSGVMAVDLGVLRPITCFDGKEVISYHGGVLSSVLRYRNKRLASFQSAIAECKKGSRRYNKLVRAKKRVLRRLRNQINDIMHKITSNFIGLCLRKQIGTIVIGDVTGIRERADYSDNANQKIHQWQFRKLIEMIRYKAEQFGIEVKLISEANTSKTCPVCGAKNNPNGRRYHCKACGFEYHRDGVGAINIWKRYPGTGQVVAGLAPVRGVRFHPHLCGHGASLAPWKVALEHHHHHH,not soluble
14,MAGDPMTFLIIRQTHENVLSKETVVKKVEASYEGKVTKATQSKDKKTYDITLENPKGTYFVKADAISADILSMNRVKAVNPSAMTEKEAEHLALERVPGTVKKQTRQSQVATYTIQKEDGKTYEVKVDMQAKTVLSADQISSKDQQKTPITKKEAKTIAERKTGGTADDADLEESEGTLIFEVDVDLPDNKEATVKINAYTGKVANIVYEDLEHHHHHH,not soluble
15,MAGEKFQKKGKEKWKEKVWYTVEAPPYLGSKEVSVALGEDSNSMVNRVVEVPISELTGNFKKSNEKALFRITNCEGTKCKTIFIGHYIGDDYIRRLVRRRKERIDIIEDVKTSDNSIITVKIVVVTDGKVTNTKKFQIRKVLTDFILNKGLSLPYSEFVRYLIGDDIYNDMISATKDIYPLKKIEVRKSELVSLSGISEIHAGSQNSGEEPVVQNLEHHHHHH,not soluble
16,MAGGDDLKLLGAWPSPFVTRVKLALALKGLSYEDVEEDLYKKSELLLKSNPVHKKIPVLIHNGAPVCESMIILQYIDEVFASTGPSLLPADPYERAIARFWVAYVDDKLVAPWRQWLRGKTEEEKSEGKKQAFAAVGVLEGALRECSKGGGFFGGDGVGLVDVALGGVLSWMKVTEALSGDKIFDAAKTPLLAAWVERFIELDAAKAALPDVGRLLEFAKAREAAAAASK,soluble
17,MAGIEITVIDYYHSKINKDSKMEIKIGELPKVLNKTYLGKLNATPSMNNPVKDTQGGEKQMESMLAYIKQKGWAGESKPNFVMNRNVIGAIPSSTGVENFIVFKTNDVQVIVKTPKEKGQESEGNQMEPWKSLIYGVNFEHHCTKTANEPLPTNDAVTKAVLKAHVPRTQEGSNNSSYSILYSAQIDGIDDKRQHYEMKVLNGGLTKYHLENSSCWFYWQSVFGNCNTLIVGSRTGKQDQDPKTLTKTRERQREELDDISYVSKFVSFSFKT,soluble
18,MAGKKTITINGVEMEASEEQTVLQLLNNSSIEVPQVCYHPSLGPIETCDTCIVSINGELKRSCSAELKDGDVIDTLSPDVKKAQVIGMDKILYNHELYCTVCDYNNGGCEIHNTVKEMKINHQSIPFDHKPYHKDESHPFYRYDPDQCILCGRCVEACQDVQVTETLTIDWERKRPRVIWDNDVPINESSCVSCGHCSTVCPCNAMMEKGMEGEAGYLTGINNETLRPMIEITKGVETGYGSILAISDMESAMRDERIKKTKTVCTYCGVGCSFDVWTKGRDILKVEPQEEAPANGISTCVKGKFGWDFVNSEERLTKPLIREGDHFREAEWEEALLLIASKFTELKEAFGPDSLAFITSSKCTNEESYLMQKLARGVIGTNNVDNCSRYCQSPATAGLFRTVGYGGDSGSITDIAQADLVLIIGSNTSESHPVLSTRIKRAHKLRGQKVIVADIRKHEMAERSDLFVQPRAGSDIVWLNAIAKYLIENGKADERFLRERVNGRDEYVKSLAPYTLEYAEEKTGIDQETLIQMAEMIGQADSVCALWAMGVTQHIGGSDTSTAISNLLLVTGNYGKPGAGSYPLRGHNNVQGASDFGSMPDRLPGYEKVTDEQVRQKYERVWGVPLPKEPGMTNHEMIEKIHSGQLKAMYVKGEEMGLVDSNINHVHAAYEKLDFFVVQDIFLSRTAEFADVVLPASPSLEKEGTFTNTERRIQRLYQVFEPLGESKPDWQIIMEVANKLGAGWLYEHPADIMEEAAKLSPIYAGVTYERLEGYNSLQWPVNADGKDSPLLFTERFPFPDGKAILYPVQWTEPKEFGEEYDIHVNNGRLLEHFHEGNLTYKSKGISEKTPEVFLEISPELAAERGIQDGTLVRLTSPFGNVKVKCLITDRVKGKEVYLPMNDSGEAAINLLTGSHADKDTDTPAYKETSAKMEILKHDGISPLPKINHRNGNPQPQIGVQVHKKWARKDYIFPGDAVKRGM,not soluble
19,MAGKPKLHYFNGRGRMEPIRWLLAAAGVEFEEKFIGSAEDLGKLRNDGSLMFQQVPMVEIDGMKLVQTRAILNYIASKYNLYGKDIKERALIDMYTEGMADLNEMILLLPLCRPEEKDAKIALIKEKTKSRYFPAFEKVLQSHGQDYLVGNKLSRADISLVELLYYVEELDSSLISNFPLLKALKTRISNLPTVKKFLQPGSPRKPPADAKALEEARKIFRF,soluble
